The values below come from publication PMC11141940.

The experiment concerns the target MADD with deletion of exon 30 (dex30), MAC-tagged (human) (UniProt Q8WXG6). Description: affinity purification with mass spectrometry + proximity labelling; AP-MS and BioID with MAC-tagged MADD (wild-type or dex30) in Flp-In T-REx 293 cells; the text does not tell which of the two approaches gave this result (Figure 7).

Take “ubiquitin-specific peptidase 9 X-linked (from UniProt Q93008 1-2554) (natural protein)”: the fold change of relative abundance against wild-type MADD is 24 fold.
